Where no end group is shown, it is not given here.
Molecular target: T1, Bromo1-linker(GGS)5-Bromo2 of BRD4 (UniProt O60885 54-168; O60885 351-457)
T1 construct: BRD4 bromo1; (GGS)5 linker that replaces the stretch between the two bromodomains; BRD4 bromo2; the limits of the two domains in the fusion are not restated; also called Bromo1-linker-Bromo2 of BRD4; source: E. coli, purified using the same procedure as the single bromodomains
Assay: ITC; 3 mM H2A.Z peptides titrated into 0.3 mM bromodomains; 25 °C; 20 mM Hepes-Na pH 7.5, 100 mM NaCl; One Set of Binding Sites model
Details: both partners purified

fold stronger binding than Bromo1 of BRD4: 6.49 fold
fold stronger binding than Bromo2 of BRD4: 1.7 fold
Binder: AGGK(Ac)AGK(Ac)DSGK(Ac)AKTKC (also: cross-linked via C-terminal cysteine) [H2A.ZK4ac7ac11ac peptides cross-linked by a C-terminal cysteine]

From publication PMC9033776, “Chromatin profiling in human neurons reveals aberrant roles for histone acetylation and BET family proteins in schizophrenia” (Nature Communications, 2022)
